The target of this assay is TbAlsin (T. brucei). The assay can be described thus: co-IP; equal volumes (10 uL each) of in vitro translated 35S-Met-labelled HA-tagged TbVps9 protein (bait) and TbRab (prey) mixed, 1 h at room temperature; anti-HA polyclonal antibody and protein A beads; 7 washes with 50 mM Tris pH 7.5, 150 mM NaCl, 10 mM EDTA, 0.1% Triton X-100, 10 mM MgCl2; SDS-PAGE and autoradiography.

TbRab5A^SN (natural protein) gave a percent of TbAlsin bound of 50%.

The values are drawn from PMC6032885.
